The record followed here is patent US20080311134A1 (published 2008).

The experiment addresses T1, MUC16 polypeptide, endogenous, on OVCAR-3 cells (human, UniProt Q8WXI7 1-14507).
T1 construct: whole, on cells; Highly polymorphic repeat protein; also called CA125; O772P
Nature of the experiment: flow cytometry on OVCAR-3 cells, 25-400 ng/mL, anti-human Fc secondary antibody. For orientation: A flow cytometer gives signals particle by particle.

Method: Bound antibody was detected using a fluorescent anti-human Fc secondary antibody.
Antibodies were applied at 25, 50, 100, 200, and 400 ng/mL in PBS+1% FBS+2 mM EDTA. After this incubation, cells were washed and then incubated with phycoerythrein-labeled goat anti-human Fc secondary antibody (one hour on ice). Cells were then washed and analyzed by flow cytometry. […] Even the lowest antibody concentration tested (25 ng or approximately 1×10¹¹ antibodies) provides a molar excess of antibodies over binding sites. Therefore, the concentration at which binding is reduced (as detected by flow cytometry) reflect the affinity of the antibody for MUC16.

B1: A117C thio hu anti-MUC16 3A5 humanized variant (antibody, human IgG1, kappa, V domains shown)
VH: EVQLVESGGGLVQPGGSLRLSCAASGYSITNDYAWNWVRQAPGKGLEWVGYISYSGYTTYNPSLKSRFTISRDTSKNTLYLQMNSLRAEDTAVYYCARWTSGLDYWGQGTLVTVSS
VL: DIQMTQSPSSLSASVGDRVTITCKASDLIHNWLAWYQQKPGKAPKLLIYGATSLETGVPSRFSGSGSGTDFTLTISSLQPEDFATYYCQQYWTTPFTFGQGTKVEIKR
notes: Full-length IgG expressed in CHO cells; Kabat 114, Eu 118; also called thio hu anti-MUC16 HC A117C 3A5; A117C thio hu 3A5
As for B1, the binding result was “binds”.
